Measured values: patent publication US20230383007A1 (BIOSION, published 2023)

T1: human TROP2-his protein (human, UniProt P09758 27-274)
T1 construct: also called biotin labeled human TROP2-his protein
T1 sequence: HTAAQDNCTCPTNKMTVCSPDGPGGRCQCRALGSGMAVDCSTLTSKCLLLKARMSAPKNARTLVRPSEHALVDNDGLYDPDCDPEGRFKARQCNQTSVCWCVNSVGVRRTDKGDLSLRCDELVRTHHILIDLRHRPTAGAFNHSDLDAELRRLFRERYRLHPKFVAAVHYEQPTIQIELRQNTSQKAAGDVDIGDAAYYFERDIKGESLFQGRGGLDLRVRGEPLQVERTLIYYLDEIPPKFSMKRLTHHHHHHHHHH

T2: cynomolgus TROP2-his protein (cynomolgus, UniProt P09758 27-272 (human entry), limits assumed)
T2 construct: also called Cyno TROP2-his; Cynomolgus monkey TROP2-his protein
T2 chain: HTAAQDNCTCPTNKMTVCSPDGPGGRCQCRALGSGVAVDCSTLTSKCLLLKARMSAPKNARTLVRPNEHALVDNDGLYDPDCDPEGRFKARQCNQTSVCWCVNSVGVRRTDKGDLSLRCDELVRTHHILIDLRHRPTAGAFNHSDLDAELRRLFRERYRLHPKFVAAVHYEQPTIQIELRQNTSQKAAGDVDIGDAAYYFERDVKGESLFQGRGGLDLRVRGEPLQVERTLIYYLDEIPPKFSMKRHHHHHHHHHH

B1: single domain antibody 01-9F (VHH)
VHH: QVQLVESGGGSVQAGGSLRLSCVVSGLPYERYCVAWFRQGPGKEREGVARILSDGTTSYSDSVKGRFTISKDNAKNTLYLQMNSLKSEDTATYYCAAEAFRPFTPSDGDCTTVLGIDYWGKGTPVTVSS
B2: sacituzumab (benchmark, an analog of sacituzumab, in house made) (antibody, human IgG1, kappa, V domains shown)
VH: SVQLQQSGSELKKPGASVKVSCKASGYTFTNYGMNWVKQAPGQGLKWMGWINTYTGEPTYTDDFKGRFAFSLDTSVSTAYLQISSLKADDTAVYFCARGGFGSSYWYFDVWGQGSLVTVSS
VL: DIQLTQSPSSLSASVGDRVSITCKASQDVSIAVAWYQQKPGKAPKLLIYSASYRYTGVPDRFSGSGSGTDFTLTISSLQPEDFAVYYCQQHYITPLTFGAGTKVEIKR
notes: also called BM; BM1

Experiments:
human TROP2-his protein [1] = target: T1, human TROP2-his protein; assay: indirect ELISA on human TROP2; unit taken from the x axis (nM)
[2] = target: T2, cynomolgus TROP2-his protein; assay: indirect ELISA on cynomolgus TROP2; unit taken from the x axis (nM)
human TROP2-his protein [3] = target: T1, human TROP2-his protein; assay: SPR Biacore; antibody captured on anti-human IgG chip, TROP2-his as analyte
[4] = target: T2, cynomolgus TROP2-his protein; assay: as above
human TROP2-his protein [5] = target: T1, human TROP2-his protein; assay: SPR Biacore T200; antibody captured on anti-human IgG CM5 chip, TROP2-his as analyte in 2-fold dilutions from 160 nM; 1:1 Langmuir fit
Source text: (§1) The purified anti-TROP2 mouse monoclonal antibodies (mAbs) were characterized for binding affinity and binding kinetics by Biacore T200 system (GE healthcare, Pittsburgh, PA, USA). Briefly, goat anti-human IgG (GE healthcare, Cat #BR100839, Human Antibody Capture Kit) was covalently linked to a CM5 chip (carboxy methyl dextran coated chip from GE healthcare #BR100530) via primary amines, using a standard amine coupling kit (GE healthcare, Pittsburgh, PA, USA) provided by Biacore. Un-reacted moieties on the chip (biosensor) surface were blocked with ethanolamine. The anti-TROP2 antibodies of the disclosure and the benchmark at the concentration of 2 μg/ml were respectively flowed onto the chip at a flow rate of 10 μL/min. Then, serially diluted human TROP2-his protein (prepared in-house with SEQ ID NO: 16), or cynomolgus TROP2-his protein (prepared in-house with SEQ ID NO: 19), 2-fold dilution in HBS-EP⁺ buffer (provided by Biacore) starting at 160 nM, were flowed onto the chip at a flow rate of 30 μL/min. The antigen-antibody association kinetics was followed for 2 minutes and the dissociation kinetics was followed for 10 minutes. The association and dissociation curves were fit to a 1:1 Langmuir binding model using BIAcore evaluation software.

[6] = target: T2, cynomolgus TROP2-his protein; assay: as above
Source text: as §1

human TROP2-his protein [7] = target: T1, human TROP2-his protein; assay: competitive ELISA: antibody pre-mixed with biotin labeled human TROP2-his, added to plate coated with the benchmark (sacituzumab analog); unit taken from the x axis (ng/mL)
Experimental: The anti-TROP2 antibodies were tested for their epitope binding in a competitive ELISA assay. Briefly, 100 μl of the benchmark at 1 μg/mL in PBS was coated on 96-well micro plates for 2 hours at 37° C. ELISA plates were washed once with wash buffer (PBS+0.05% v/v Tween-20, PBST) and then blocked with 200 μl blocking buffer (5% w/v non-fatty milk in PBST) for 2 hours at 37° C. While blocking, the anti-TROP2 antibodies of the disclosure or controls were diluted with biotin labeled human TROP2-his protein (SEQ ID NO: 16, 34 ng/mL in 2.5% w/v non-fatty milk in PBST), starting at 80 nM with a 5-fold serial dilution, and incubated at room temperature for 40 minutes. After plate washing 4 times, the antibody/TROP2-his protein mixtures were added to benchmark coated plates, 100 μl per well. After incubation at 37° C. for 40 minutes, plates were washed 4 times again using wash buffer. Then the plates were added and incubated with 100 μl Peroxidase Streptavidin (1:10000 dilution in PBST buffer, Jackson Immunoresearch, Cat #016-030-084) for 40 minutes at 37° C. Plates were washed again using wash buffer. […] The absorbance of each well was read on a microplate reader using dual wavelength mode with 450 nm for TMB and 630 nm as the reference wavelength, and the OD (450-630) values were plotted against antibody concentration. Data was analyzed using Graphpad Prism software and IC₅₀ values were reported.

| Binder | EC50 (human TROP2-his protein [1]) | EC50 [2] | Kd (human TROP2-his protein [3]) | koff (human TROP2-his protein [3]) | kon (human TROP2-his protein [3]) | Kd [4] | koff [4] | kon [4] | Kd (human TROP2-his protein [5]) | koff (human TROP2-his protein [5]) | kon (human TROP2-his protein [5]) | Kd [6] | koff [6] | kon [6] | IC50 (human TROP2-his protein [7]) |
| --- | --- | --- | --- | --- | --- | --- | --- | --- | --- | --- | --- | --- | --- | --- | --- |
| B1 | 0.104 nM | 0.107 nM | 0.291 nM | 0.00017 s⁻¹ | 586000 M⁻¹ s⁻¹ | 0.285 nM | 0.00015 s⁻¹ | 525000 M⁻¹ s⁻¹ | 0.0262 nM | 8.11e-06 s⁻¹ | 309000 M⁻¹ s⁻¹ | 0.558 nM | 0.000161 s⁻¹ | 287000 M⁻¹ s⁻¹ | 0.0274 µg/mL |
| B2 | 0.162 nM | 0.161 nM | 0.554 nM | 0.000286 s⁻¹ | 516000 M⁻¹ s⁻¹ | 0.436 nM | 0.000228 s⁻¹ | 522000 M⁻¹ s⁻¹ | 0.409 nM | 0.000116 s⁻¹ | 284000 M⁻¹ s⁻¹ | 0.874 nM | 0.000224 s⁻¹ | 257000 M⁻¹ s⁻¹ |  |
